The values below come from paper PMC4718629, “Molecular Determinants of GS-9620-Dependent TLR7 Activation” (PLoS ONE, 2016).

Broadly, the stoichiometry N is a count of units in the complex or per binding partner.

The data set concerns the molecule itself. The data set can be described thus: SEC; purified recombinant full-length TLR7 run against calibration standards (670, 158, 44, 17 and 1.35 kDa); solubilized with Fos-Choline 14. Background: Size exclusion chromatography separates by hydrodynamic size, large species first.

B1: full-length recombinant human TLR7 (residues 27-1049) with N-terminal 6HIS tag (receptor, UniProt Q9NYK1 27-1049, looked up)
chain: ARWFPKTLPCDVTLDVPKNHVIVDCTDKHLTEIPGGIPTNTTNLTLTINHIPDISPASFHRLDHLVEIDFRCNCVPIPLGSKNNMCIKRLQIKPRSFSGLTYLKSLYLDGNQLLEIPQGLPPSLQLLSLEANNIFSIRKENLTELANIEILYLGQNCYYRNPCYVSYSIEKDAFLNLTKLKVLSLKDNNVTAVPTVLPSTLTELYLYNNMIAKIQEDDFNNLNQLQILDLSGNCPRCYNAPFPCAPCKNNSPLQIPVNAFDALTELKVLRLHSNSLQHVPPRWFKNINKLQELDLSQNFLAKEIGDAKFLHFLPSLIQLDLSFNFELQVYRASMNLSQAFSSLKSLKILRIRGYVFKELKSFNLSPLHNLQNLEVLDLGTNFIKIANLSMFKQFKRLKVIDLSVNKISPSGDSSEVGFCSNARTSVESYEPQVLEQLHYFRYDKYARSCRFKNKEASFMSVNESCYKYGQTLDLSKNSIFFVKSSDFQHLSFLKCLNLSGNLISQTLNGSEFQPLAELRYLDFSNNRLDLLHSTAFEELHKLEVLDISSNSHYFQSEGITHMLNFTKNLKVLQKLMMNDNDISSSTSRTMESESLRTLEFRGNHLDVLWREGDNRYLQLFKNLLKLEELDISKNSLSFLPSGVFDGMPPNLKNLSLAKNGLKSFSWKKLQCLKNLETLDLSHNQLTTVPERLSNCSRSLKNLILKNNQIRSLTKYFLQDAFQLRYLDLSSNKIQMIQKTSFPENVLNNLKMLLLHHNRFLCTCDAVWFVWWVNHTEVTIPYLATDVTCVGPGAHKGQSVISLDLYTCELDLTNLILFSLSISVSLFLMVMMTASHLYFWDVWYIYHFCKAKIKGYQRLISPDCCYDAFIVYDTKDPAVTEWVLAELVAKLEDPREKHFNLCLEERDWLPGQPVLENLSQSIQLSKKTVFVMTDKYAKTENFKIAFYLSHQRLMDEKVDVIILIFLEKPFQKSKFLQLRKRLCGSSVLEWPTNPQAHPYFWQCLKNALATDNHVAYSQVFKETV
notes: human Toll-like receptor 7 (TLR7), residues 27-1049; also called recTLR7; recombinant TLR7
Turning to B1, the “stoichiometry N” value worked out at 2.
